Assay [1] deals with T1, Human CD3e (Acro Biosystems CDE-H5223) (human, UniProt P07766 23-126).
T1 construct: Analyte in SPR; also called huCD3e
Description: SPR (Biacore T200), antibody captured via anti-human Fc, CD3e as analyte, 1:1 model. Here is the method: (§1) In this example, exemplary humanized anti-CD3 antibody molecules BKM0020, BKM0025, BKM0028, BKM0038 (as described herein) were tested for their binding affinity to human or cynomolgus CD3e using surface plasmon resonance (SPR). SPR measurements were performed by using the BIAcore T200. Each construct was immobilized on a CM5 chip via Anti-human Fc antibody to a response of 200 RU. Human CD3e (Acro Biosystems CDE-H5223) was diluted to 500 nM and then diluted two-fold. Each analyte concentration was injected at a flow rate of 20 μl/min over the surface on which each antibody was immobilized. The data was fit using a 1:1 binding model. Affinity to human CD3e was preserved compared to the parental and affinity to cyno CD3e was two to three-fold lower compared to the parental antibody.
On the technique in general: SPR reads the build-up and loss of mass on a sensor chip optically.

Assay [2] concerns the target T2, cynomolgus CD3e (cynomolgus, UniProt Q95LI5 22-117, limits assumed).
T2 construct: also called cCD3e; cyno CD3e
T2 sequence (looked up): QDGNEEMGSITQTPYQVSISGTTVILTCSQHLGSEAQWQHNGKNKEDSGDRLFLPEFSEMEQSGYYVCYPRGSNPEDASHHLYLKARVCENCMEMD
Described as above. Here is the method:
as §1

The target in assay [3] is T3, cynomolgus CD3e (cynomolgus, UniProt Q95LI5 22-117).
T3 chain: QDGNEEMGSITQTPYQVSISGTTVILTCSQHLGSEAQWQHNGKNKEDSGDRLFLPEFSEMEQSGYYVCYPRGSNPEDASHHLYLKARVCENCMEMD
Briefly: SPR.

The target in assay [4] is T4, Human CD3e (Acro Biosystems CDE-H5223) (human, UniProt P07766 23-126).
T4 chain: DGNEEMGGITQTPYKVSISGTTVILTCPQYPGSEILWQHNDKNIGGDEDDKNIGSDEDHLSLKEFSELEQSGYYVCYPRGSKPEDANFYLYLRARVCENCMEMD
Briefly: SPR.

Assay [5] deals with T5, human CD3e on Jurkat cells (human, UniProt P07766 23-207).
T5 construct: whole, on cells; also called huCD3e; CD3 expressed on Jurkat cells
Description: flow cytometry (FACS) on Jurkat cells, 3-fold dilutions from 10 ug/ml, anti-human IgG AF647. The protocol:
Binding of the exemplary humanized anti-CD3 antibodies to CD3-expressing Jurkat cells was performed using FACS. Antibodies were tested in a series of 3-fold dilutions starting with 10 ug/ml concentration and detected using anti-human IgG secondary antibodies conjugated to AF647.

One may read the Kd as a measure of binding affinity in units of concentration. A higher Kd goes with weaker binding.

B1: BKM0025 (humanized anti-CD3 antibody molecule) (antibody, V domains shown)
VH: QVQLVQSGAEVKKPGASVKVSCKASGYTFTTYWMHWVRQAPGQGLEWMGNFNPNNGDTNYNEKFKTRVTMTVDKSTSTAYMELRSLRSDDMAVYYCARDDYGRYYFDYWGQGTLVTVSS
VL: EIVMTQSPATLSLSPGERATLSCKSSQSLLNSRTRKNYLAWYQQKPGLAPRLLIYWAFTRESGIPDRFSGSGSGTDFTLTISRLEPEDFAVYYCKQSFILRTFGGGTKVEIK
notes: Captured via anti-human Fc antibody in SPR; constant regions not tied
Take B1: the binding result (in assay [1]; with cynomolgus CD3e [2]) was “binds” throughout. In the assay with cynomolgus CD3e [3], the affinity, expressed as Kd, was 18.3 nM.

B2: BKM0020 (humanized anti-CD3 antibody molecule) (antibody, V domains shown)
VH: QVQLVQSGAEVKKPGASVKVSCKASGYTFTTYWMHWVRQAPGQGLEWMGNFNPNNGDTNYNEKFKTRVTMTVDKSTSTAYMELRSLRSDDMAVYYCARDDYGRYYFDYWGQGTLVTVSS
VL: DIQMTQSPSTLSASVGDRVTITCKSSQSLLNSRTRKNYLAWYQQKPGKAPKLLIYWAFTRESGVPSRFSGSGSGTEFTLTISSLQPDDFATYYCKQSFILRTFGGGTKVEIK
notes: Captured via anti-human Fc antibody in SPR, so it carries a human Fc; constant regions not tied
In the case of B2, the binding result (in assay [1]; with cynomolgus CD3e [2]; in assay [5]) was “binds” throughout. For the same molecule, the Kd was 6.34 nM in assay [4] and 9.98 nM with cynomolgus CD3e [3].

B3: BKM0038 (humanized anti-CD3 antibody molecule) (antibody, V domains shown)
VH: QVQLVQSGAEVKKPGASVKVSCKASGYTFTTYWMHWVRQAPGKGLEWMGNFNPNNGDTNYNEKFKTRVTMTVDKSTSTAYMELSSLRSEDTAVYYCARDDYGRYYFDYWGQGTLVTVSS
VL: DIQMTQSPSSLSASVGDRVTITCKSSQSLLNSRTRKNYLAWYQQKPGKAPKLLIYWAFTRESGVPSRFSGSGSGTDFTLTISSLQPEDFATYYCKQSFILRTFGGGTKVEIK
notes: as for B1
As for B3, the binding result (in assay [1]; with cynomolgus CD3e [2]) was “binds” in each case. Besides, the Kd amounted to 6.47 nM in assay [4] and 14.1 nM with cynomolgus CD3e [3].

B4: BKM0028 (humanized anti-CD3 antibody molecule) (antibody, V domains shown)
VH: QVQLVQSGAEVKKPGASVKVSCKASGYTFTTYWMHWVRQAPGKGLEWMGNFNPNNGDTNYNEKFKTRVTMTVDKSTSTAYMELSSLRSEDTAVYYCARDDYGRYYFDYWGQGTLVTVSS
VL: EIVMTQSPATLSLSPGERATLSCKSSQSLLNSRTRKNYLAWYQQKPGLAPRLLIYWAFTRESGIPDRFSGSGSGTDFTLTISRLEPEDFAVYYCKQSFILRTFGGGTKVEIK
notes: as for B1
As to B4, the binding result (in assay [1]; with cynomolgus CD3e [2]) was “binds” each time. In addition, the values for the Kd (in assay [4]; with cynomolgus CD3e [3]) were 4.72 nM and 14.1 nM, respectively.

The record behind these values is patent publication US20240002543A1 (MARENGO THERAPEUTICS, published 2024).
